Results from patent US20250090876A1 (published 2025).

Biological target: antigen target
Experiment: BLI

B1: ESS0102 5A (antibody, V domains shown)
VH: EVQLLESGGGLVQPGGSLRLSCAASGFSFSSYEMNWVRQAPGKGPEWISYISSGGGTIYYADSVRGRFTISRDNSNNTLYLQMNSLRPDDTAIYYCARDRGRKWLQLLFDSWGQGTLVTVSS
VL: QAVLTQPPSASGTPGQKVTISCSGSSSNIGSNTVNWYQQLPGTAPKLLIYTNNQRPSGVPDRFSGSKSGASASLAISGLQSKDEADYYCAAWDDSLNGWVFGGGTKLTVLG
Kd: 11.6 nM
